± gives the half width of the 95% confidence interval.
What was measured:
[1] = folding stability dG unfold (combined trypsin and chymotrypsin); higher = more stable
Summary of the method: (§1)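 Unfolding free energy was derived, per protease or combined, by relating Bayesian-fitted K50 values from sequencing counts to a sequence-predicted unfolded-state K50 and a shared folded-state K50. The underlying digests exposed cysteine-free mini-proteins under 80 residues, in a PA-tagged cDNA display construct, to trypsin and chymotrypsin at 11 threefold-diluted concentrations and to a no-protease condition. A filter kept only designs with AlphaFold2 dimer inter-PAE above 15.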

[2] = folding stability dG unfold from chymotrypsin proteolysis; higher = more stable
Summary of the method: as §1

[3] = folding stability dG unfold from trypsin proteolysis; higher = more stable
Summary of the method: as §1

Sequence | folding stability dG unfold [1] [kcal/mol] | folding stability dG unfold [2] [kcal/mol] | folding stability dG unfold [3] [kcal/mol]
SAGGSAGGSAGGKTYRVKVRIYNPETGEVLEIEVEVETDTEEEAKRAAENLARELLKKSSAGGSAGGSAGGS [r10_863_TrROS_Hall] | 3.47 ± 0.12 | 3.7 ± 0.058 | 2.69 ± 0.045
SAGGSAGGSAGGKTYTADEIKKIKKINGKWYVEIDGKTYEIPAKDIKIKKGDKIKIYPVSAGGSAGGSAGGS [r10_665_TrROS_Hall] | 1.57 ± 0.16 | 1.59 ± 0.091 | 1.45 ± 0.059
SAGGSAGGSAGGKVEIYENPSTPYLVVVVYNPETGEKTVVLFKPDNPELAEKVAKELASSAGGSAGGSAGGS [r10_1117_TrMRF] | 1.38 ± 0.11 | 1.81 ± 0.16 | 0.711 ± 0.077
SAGGSAGGSAGGKVITVELPDDVTVTFFIPEDPDIVPVEVTPPDGSTLTLPAKDIRELLGSAGGSAGGSAGG [r7_769_TrMRF] | 0.364 ± 0.1 | 0.49 ± 0.12 | 0.159 ± 0.049
SAGGSAGGSAGGKVKIVSVSYDPETGKLTVEVEIPNPKKLLTVTTDNPNIPAEEIAKKLASAGGSAGGSAGG [r7_833_TrMRF] | 0.362 ± 0.15 | 0.058 ± 0.056 | 0.453 ± 0.091
SAGGSAGGSAGGKVTVTPDGRLVIEKPKVTVEPVEVEEVEVELELKLSPEELEELLKKLSAGGSAGGSAGGS [r10_1096_TrROS_Hall] | 0.554 ± 0.19 | 0.745 ± 0.044 | 0.51 ± 0.17
SAGGSAGGSAGGKVVKFTRPDGKPVDAKKILSYDPDKPKLYVLVEDEGPVELREVDADKDSAGGSAGGSAGG [r7_236_TrMRF] | 0.161 ± 0.23 | 0.379 ± 0.32 | -0.245 ± 0.22
SAGGSAGGSAGGKVVKKVKVLTKTPKGGYKVIEVDFTDPSAVVEEAKKAGLEVLKVEEVSAGGSAGGSAGGS [r10_882_TrMRF] | 0.728 ± 0.098 | 1.05 ± 0.094 | -0.045 ± 0.079
SAGGSAGGSAGGLAPAPDGSPVAVLLDDGRVVVFDPETAELYVAFVTPDSVRVVPLPLDLSAGGSAGGSAGG [r7_527_TrMRF] | 0.332 ± 0.053 | 0.656 ± 0.038 | -0.565 ± 0.071
SAGGSAGGSAGGLEEIRENGEALVFYPDGRVYRVDLKTGKITPPPGFKPENIVRVVFVKKSAGGSAGGSAGG [r7_566_TrMRF] | 0.301 ± 0.076 | 0.0292 ± 0.14 | 0.493 ± 0.1
SAGGSAGGSAGGLEELKKGFKKPVFVAKIEKEVRLLPNGDLIVRYKIEGPDLELELVFSSAGGSAGGSAGGS [r10_160_TrMRF] | 3.28 ± 0.12 | 3.56 ± 0.14 | 2.6 ± 0.12
SAGGSAGGSAGGLEIEFWFFFPDEGYMIEVEWERDPDGPIEPTKITEIHPMPDGQPNPGFSAGGSAGGSAGG [r11_750_TrROS] | 1.94 ± 0.087 | 2 ± 0.04 | 1.81 ± 0.059
SAGGSAGGSAGGLGPDTPYATLSVTLTFTVRLKVRDPVTGKEYEIEYDVTLTFTFTVPASAGGSAGGSAGGS [r10_1116_TrMRF] | 5.58 ± 0.4 | 5.84 ± 0.31 | 5.07 ± 0.54
SAGGSAGGSAGGLLKLKLKLKYEFTFKDENGNTYKVEKELTLVLELPPINETGKKNLVLSAGGSAGGSAGGS [r10_168_TrMRF] | 3.12 ± 0.13 | 3.66 ± 0.063 | 2.07 ± 0.036
SAGGSAGGSAGGLPDREILEVRVLNPEREETGLRVRVEVVLPDGPVTIELPAEEVKELASAGGSAGGSAGGS [r10_771_TrMRF] | 0.726 ± 0.071 | 1.03 ± 0.024 | -0.0431 ± 0.068
SAGGSAGGSAGGLPEDIELEVEPLEITLEDGSRVRILIARAPDPEIAAIDIEVFPPDDPKSAGGSAGGSAGG [r11_338_TrMRF] | 0.559 ± 0.13 | 0.51 ± 0.071 | 0.417 ± 0.11
SAGGSAGGSAGGLPPDVRLRVRITRPDGTVLEFDAPADVEIFFPDVPPEWRIEVDAEDVSAGGSAGGSAGGS [r10_774_TrMRF] | 2.09 ± 0.16 | 2.49 ± 0.057 | 0.732 ± 0.061
SAGGSAGGSAGGLPPGAKVKVEIEISYDDPFSGPTNEYNSFPVELNFEPPEPIPTDPRLNSAGGSAGGSAGG [r7_522_TrMRF] | < -1 | -1.38 ± 0.55 | -0.683 ± 0.16
SAGGSAGGSAGGLSLKVKNKKTGKWYDIESIEVKKDPSSGKPVIKIKTSGPKEVEKELVSAGGSAGGSAGGS [r10_663_TrMRF] | -0.34 ± 0.4 | -0.178 ± 0.22 | -0.894 ± 0.34
SAGGSAGGSAGGLVAKVYRDGKEAVFYFDSPEEMVESIRPLFPDGKEVKVEVTTPEELFSAGGSAGGSAGGS [r10_1167_TrMRF] | 0.0392 ± 0.24 | 0.22 ± 0.27 | -0.677 ± 0.16
SAGGSAGGSAGGLVEQAVRAIREAKKAGLKEVVIYLSEEQKEAVKEAAEKEGLKVKIVPESAGGSAGGSAGG [r11_371_TrROS_Hall] | 0.589 ± 0.086 | 0.814 ± 0.021 | 0.244 ± 0.048

Reference: the supplement of paper PMC12764529
